This passage reports stoichiometry N results from publication PMC9157509.

This test has as its target AB variant of cytochrome cb562 (forms the disulfide-linked dimer (AB)2) (UniProt P0ABE7). The test can be described thus: solution small-angle X-ray scattering.

“AB variant of cytochrome cb562 (forms the disulfide-linked dimer (AB)2) (from UniProt P0ABE7 23-128)”: the stoichiometry N was determined as 2.

For orientation: stoichiometry N means a count of units in the complex or per binding partner.
